For assay [1], the target named is HLA-G recombinant protein (CAT #: TP305216, Origene) (human) (UniProt P17693). The experiment in a line: competitive ELISA, HLA-G coated, competitor biotinylated LILRB1. For orientation: An ELISA detects its analyte on a solid surface through an enzyme-linked reagent.
The target is the same in assay [2]. Put plainly: competitive ELISA, HLA-G coated, competitor biotinylated KIR2DL4.
For assay [3], the target named is T1, HLA-G recombinant protein (CAT #: TP305216, Origene) (human, UniProt P17693 25-338, limits assumed).
T1 construct: Bought recombinant protein coated on the plate; also called human leukocyte antigen-G
Put plainly: competitive ELISA, HLA-G coated, competitor biotinylated KIR2DL4; blocking normalized to 87G. On the procedure:
(§1) The procedure is as follows. HLA-G recombinant protein (CAT #: TP305216, Origene) (0.2 mg/ml, 100 μl each well) was coated on 96-well plate overnight at 4° C. Next day, the coating buffer was discarded, and blocked with 3% skin milk for 2 hr at room temperature, followed by washing 5 times with PBST (0.05% Tween in PBS). […] After 9 times of washing, each well was incubated with 100 μl PBST containing streptavidin-HRP conjugates (ThermoFisher, Cat No: N100, dilution titer: […]) for 2 hr at room temperature. After 9 times of washing with PBST, 50 μl of TMB substrate for detecting HRP activity (ThermoFisher, Cat No:N301) was added. The reactions were stopped by adding 50 μl stop solution (ThermoFisher, Cat No:N600), and it was measured by ELISA reader using 450 nm channel.

The target of assay [4] is T1, HLA-G recombinant protein (CAT #: …). Put plainly: competitive ELISA, HLA-G coated, competitor biotinylated LILRB1; blocking normalized to 87G. On the procedure: as §1

As usually defined, the IC50 is the concentration at which inhibition is half-maximal.

As for “commercial anti-HLA-G monoclonal antibody (87G)”, the half-maximal inhibitory concentration (IC50) in assay [1] was determined as 0.101 µg/mL; in assay [2] it was 0.0414 µg/mL.

B1: anti-HLA-G nanobody clone #9 (VHH)
VHH: QVQLVESGGGSVQAGGSLRLSCEASGRTYSSNCMGWFRQAPGKERENVAAIYTGGDGITYADSVKGRFTISQDKLKNMLYLQMDSLKPEDTAMYYCAADPNRRRMGVGGSCLRANFGPGGQGTQVTVSS
notes: also called anti-tumor antigen nanobody; anti-HLA-G nanobody (NB)
Regarding B1, the results for the IC50 in assay [3] and in assay [4] were 0.00614 µg/mL and 0.000825 µg/mL, respectively.

B2: anti-HLA-G nanobody clone #20 (VHH)
VHH: EVQLVESGGGSVRPGETLRLSCTASGFTVDDSDMSWYRQAPGDECELVSSITSGGGKYYSHPVKGRFTIFRDKGKNTMYLQMNSLVPEDTGVYYCVAPAWTGYGCTWGQGTQVTVSS
notes: as for B1
With B2, the IC50 in assay [3] was found to be 0.814 µg/mL; in assay [4], 0.000174 µg/mL.

The record behind these values is patent US20220306747A1 (CHINA MEDICAL UNIVERSITY HOSPITAL, published 2022).
